In the nanobody polyreactivity screen of Harvey et al. (2022):

Assay: yeast display, Sf9 membrane polyspecificity reagent, FACS + sequencing; frameworks hold sequencing errors
Procedure, shortened: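 In a synthetic yeast display library (Saccharomyces cerevisiae BJ5465), nanobody expression was induced with galactose for 36–48 hours. FACS gates were set low and high (top ~1%) using anti-HA fluorescence for expression and streptavidin fluorescence for binding of the Sf9 membrane reagent. Each polyreactivity label is drawn from the gate of origin.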

Row | Sequence | polyreactivity (PSR sort gate)
1 | QVQIVESGGGLVQEGGSLRLSCAASGRIFEPYDMGLYRQSPGKERELVAALRCSGGSTYYADSVKGRFTISRDNAKNTVYLQMNSLKPEDTAVYYCAKDAFGWGRVYYYRSGYWGQGTQVTVSS | high polyreactivity
2 | QVQIVESGGGLVQPGCSLRLSCAASGRIFYGYAMGLYRQSPGKERELVAAITSTRGRTYYADSVKGRFTISRDNAKNTFYLQMNSLKPEDSAVYYCAKRGYTRWGLDYWGQGTQVTVSS | high polyreactivity
3 | QVQIVESGGGLVQPGGILRLSCAASGSTSQPYDMGWYRQAPGKEWELVASITKGRITYYADSVKGRFTISRDNAKNTVYLQMNSRKPEDTAVYYCNADNVFEGYDGRSARASYRYYSWGQGTQVTVSS | low polyreactivity
4 | QVQIVESGRGLFQAGGSLRLSCAASGSIFRFNVMGWYRPATGKECELVASISDSGDNTNYADSVKGRFTISGDNAKNPVDLLMNSLKPEDTAVYYCAARGSRWYIAVDYRGQGTQVTVSS | low polyreactivity
5 | QVQIVESGRGLVQAGGSLRLSCAASGLTFARNAMGWSRPAPGKQRELVAAITSGASTTYADSVKGRITISRDNAMNTVSVQMNSLKPEDTAVYYCAAPGYWVRTYGGWSRLDYWGQGTQVTVSS | high polyreactivity
6 | QVQIVESGVGLVQAGGSLSLSCAASGIIIHSNAMGWYRQAPGKERELVAAITSSGGSKYYADSVKGRFTISRDNAKNTVYLQMNSLKPVDTAVYYCAVVTILVYRYVVPYDYWGHGTQVTVSS | high polyreactivity
7 | QVQIVESRGGLVQAGGSLRLSCAASGRILYLYAMGWYRQAPGKERELVARISQRDGSTYYADSVKGRFTISRDNAKNNDYLHMNSLKPEDTAVYYCNAVFSRGSYGYSYDYWGQGTQVTVSS | low polyreactivity
8 | QVQIVESRGGLVQAGGSLSLSCAASGRIFDYYAMGWYRQPPGKERELVAAISSSVGNTYYADSVKGRFTISRDNSKNTVYLQMNSLKPEVTAVYYCADYSYVRSSYEVEYDYWGQGTQVTVSS | low polyreactivity
9 | QVQIVESRVGLVQAGGSLRLSCAASGLTFYYYAMGWYRQAPGKERELVAAIDGSGGITYYEDSLKARFTISRDNEKNTVYLQMNSLKPEDTAVYYCAAERVVGDAYDYWGQGTQVTVSS | high polyreactivity
10 | QVQIVETGGGLVQAGGSLRLSCDASGSIFPDYAKGWYRQAPRKERELLASISWDGGSTYYADSVKGRFTISRDNAKNTVYLQMNSLKPEDTAVYYCATEWLVGGGVTVDYWGQGTQVSVSS | low polyreactivity
11 | QVQLAESGAGLVQAGGSLRLSCAASGFTFFPYAMGWYIQAPGKERELVAGITYNGGSTYYADSVKGRFTISRDNAKNTVYLQMNSLKPEDTAVYYCNAGRIGGFDWGQGTQVTVSS | low polyreactivity
12 | QVQLAESGGGLVQAGGSLRLSCSASGSTFVAYAMGWYRQAPGKERELVAAITRSGGSTYYADSVKGRFTISRDNAKNTVYLQMNSLKPEDTAVFYCAARHYRSRDGYWGQGTQVTVSS | high polyreactivity
13 | QVQLDESGGRLVQAGGSLRLSCAASGSIFKVNAMGWYRQAPGKERELVAVISKRGGSTYYADSVKGRFTISRDHAKNTVYLQMNSLKPEDTAVYYCAAGKAPPSLRWVARIGKYEYWGQGTQVTVSS | low polyreactivity
14 | QVQLEDSGGGLFQAGGSLRLSCAASGNTFPVSYTMGWYIQAHRKEREFVAAISKDGGRTYYADSVKGRFTISRDNAKNTVYLQMNSLKPEDTAVYYCAARYSSSRGLSSEYWGQCTQVTVSS | high polyreactivity
15 | QVQLEDSGGGLVQAGGSLPLSCAASGSIFVQYDMGWYIQAPGKERELVAAINDSGDITYYADSVKARFTISRDNAKNTIYLQMNSLKPEDTAVYYCAASAAYYGFYKSVTYDYWGQGTQVTVSS | low polyreactivity
16 | QVQLEDSGGGLVQAGGSLRLICAASGSIIGTKAMGWYRQAPGKERELVAAIHWSGGTTYYADSVKGRFTISRDNAKNTVYFQMNSLKPDDTPVYDCATVFFVLPPTRFDAWGQGTLVTVSS | low polyreactivity
17 | QVQLEDSGGGLVQAGGSLRLSCAASGFNFYYNAMGWYRKAPGKERELVAAISWSDGGTYYADSVKGRFTISRDNAKNTVYLQMNSLKPEDTAFYYCAADFRLRAYYPGYEYWGQGTQVTVSS | low polyreactivity
18 | QVQLEDSGGGLVQAGGSLRLSCAASGFTILRYAMGWYRQAPGKERELVAAIDWYGGSTYYADSVKGRFTISRDNAKNTVFVQMNSLKPEDCAVYYCNARKINFPSRFNDWGQGTQVTVSS | low polyreactivity
19 | QVQLEDSGGGLVQAGGSLRLSCAASGIIFPDYAMGWYRQAPGKQRELVADISFSAGSTYYADSVKGRFTISRDNAKNTVYLQMNSLKPEDTAVYYCNARPFLTVLYLFYGNNYDYWGQGTQVTVSS | low polyreactivity
20 | QVQLEDSGGGLVQAGGSLRLSCAASGRTSVGYVMGWYRQAPGKERELVAAISASGGSTYYADSVKGRFTISRDNAKNTVYLQMNSLKPEDTAVYYCNAPVYVPYDYWGQGTQVTVSS | low polyreactivity
21 | QVQLEDSGGGLVQAGGSLRLSCAASGSTFDNYAMGWYRQAPGKERELVAVITQSGGITFYADSVKGRFTISRDNAKNTVYLQMNSVKPEDTAVYYCNVELDRSWYYYWGQGTQVTVSS | low polyreactivity
22 | QVQLEDSGGGLVQAGGSLRLSSPASGRIFGWYAMGWYRQAPGKERELVATISYSGASTYYADSVKGRFTISRDNAKNTVYLQMNSLKPEDTAVYYCAAVYHKNGCGDYSWGQGTQVTVSS | high polyreactivity

Row | Sequence | polyreactivity (PSR sort gate)
23 | QVQLEESAGGLVQAGGSLRLICADSARILRQYARGWYRQAPGKERELVAAITSSGGSTYYADSVKGRFTISRDNEKNTVYLQMNSMKPEDTAVYYCNARLRGAKYDYWGQGTQVSVSS | high polyreactivity
24 | QVQLEESAGGLVQAGGSLRLSCAASGRIFNYYAMGWYRQAPGKERELVATISSTGSSTYYADSVKGRFTISRDNAKNTVYLQMNSLKPEDTAVYYCAARYVRQYYRAEDYWGQGTQVTVSS | high polyreactivity
25 | QVQLEESAGGLVQAGGSLRLSCAASGRSFNAYAMGWYRQAPGKERELVATISWRTGSTYYADSVKGRFTISRDNAKNTVYLQMNSLKPEDTAVYYCNAKVGSYGAQGYRFAYNYWGQGTQVTVSS | high polyreactivity
26 | QVQLEESGGCLVQAGGSLRLSCAASGFTFRGYAMGWYSQAPGKERELVAAISKRGGSTYYADSVKGRFTISRDNAKNTVYLLMNSLKPADTAVYYCNADYYIVGPPYSPTREDYWGQGTQVTVSS | high polyreactivity
27 | QVQLEESGGCLVQAGGSLRLSCAASGIIFWDNALGWYRQAPGKERELVASINYSGGSTYYADSVKGRFTNSRDNAKNTVYLQMNSLKPEDTAVYYCAARTVTLDDWDYAYDYWVQGTQVTVSS | low polyreactivity
28 | QVQLEESGGCLVQAGGSLRLSCAASGRIITSNDMGWYRQAPGKERELVAAISKSGGRTYYADSVKGRFTISRDNAKNTVYLQMNSLKPEDTAVYYCAKDNYWGQGTQVTVSS | high polyreactivity
29 | QVQLEESGGCLVQAGGSLRLSCAASGSIFRHNVMGWYRPAPGKERELVAAISGGGGRTYYADSVKGRFTISRDNAKNTVYLQMNSQKPEDTAVYYCNAVGPGLYQGDSTDSRYNYWGQGTQVTVSS | high polyreactivity
30 | QVQLEESGGCLVQAGGSLRLSCAASGSIFRIYAMGWYRQAPGKEREFVAAISSRGGRTYYAYSVKGRFTISRDNAKNTVYLQMNSLKPEDTAVYYCNARATRGSYYEYEYWGQGTQVTVSS | high polyreactivity
31 | QVQLEESGGCLVQAGGSLRLSCAASGSTFSNYAMGWYRLAPGKESELVAAISYSGARTDYADSVKGRFTISRDNAKHTVYFQMHSLKPEDTAVYYCAAQVLSRHANPYAYYYWGQGTQVTVSS | high polyreactivity
32 | QVQLEESGGCLVQAGGSLRLSCAATGITFYLYAMGWYRHAPGKERELVAAINSGGSTSYADSVKGRFTISRDNAKNTVYLQMNSLKTEDTADYYCNKLFLKFWGHQYGYWGQGTQVTVSS | high polyreactivity
33 | QVQLEESGGGFVQAAGTLRLSCAPSGRIFLPYAMGWYRQAPGKEREFVAAITWGAGTTYYADSVKGRFTISRDNAKNTVYLQMNSLKPDDTAVYYCNARRRRAFSLYYYWGQGTQVTVSS | high polyreactivity
34 | QVQLEESGGGFVQAGGCLRLSCAASGRIFYGYAMGWYRQAPGKERELVAAITRSSSTYYADSVKGRFTISRDNAKNTVYLQMNSQKPEDTAVYYCAAVMYATRPVYGFESWGLGTQVTVSS | high polyreactivity
35 | QVQLEESGGGIVQAGGSLRLSCAASGSNYASNAMGWYRQAPRKERELVAAINSGDSTNYADSVKGRFTISRDNGKNTVYLQMNSLKTEDTAVYYCSRGLEERYDYWGQGTQVTVSS | low polyreactivity
36 | QVQLEESGGGIVQAGGSLRLSCAASGSTFGVYAMGWYRQAPGKERELVAAISSSTGSTYYADSVKGRFTISRDNAKNTVYLQMNSLKPEYTAVYYCAAAGYGKVRGDYWGQGTQVTVSS | low polyreactivity
37 | QVQLEESGGGLDQAGGSLRLSCAASGNIFYGNAMGWYIQAAGKERALVARISGTGRTNYADSVKGRFTISRDNAKNTVYLQMNSLKPEDTAVYYCAKYGYRSRYGYDYWGQGTQVTVTS | high polyreactivity
38 | QVQLEESGGGLVHAGGSLPLSCAASGGTFYKYAMGSYRQAPGKERELVARISRCGSTYYADSVNGRFTISRDNAKNTVYLQMNSLKPEDTAVYYCAKRWFAGWPIVVPYNYWGQGTQVTVSS | high polyreactivity
39 | QVQLEESGGGLVHAGGSLRLSCAASGSTFGYYTMGWYRQAPRKERELVAAITWSGGSTYYADSVKGRFTISLDNAKNTVYLQMNSLKPEDSAVYYCAADDYWTPFGYWGQGTQVTVSS | low polyreactivity
40 | QVQLEESGGGLVLAGGSLRLSCAASGSTFYNYAKGCYREAPGKERELVAAITFTGGSTYYADSVKGRFTISRDNAKNTVYLQMNSLKPEDTAVYYCNRLGPLGDQQQYDYWGQGTQVTVSS | low polyreactivity
41 | QVQLEESGGGLVQAGDSLRLSCDASGSTFPGYAMGWYRPAPGKERELVAAIYKRGGSTRYADSVKGRFTISRDNAKNTVYLQMNSLKPEDTAVYYCAASYSYSGSGGGYWGQGTQVTVSS | high polyreactivity
42 | QVQLEESGGGLVQAGFSLRLSCAASGRIFVPNAMGWSRPAPGKEGELVAAIRWTGGSTYYADSVQGRFTISRDNAKNTVYLQMNSLKPEDTAVSYCAARYAARRLTYFWPQYARYDYWGQGTQVTVSS | high polyreactivity
43 | QVQLEESGGGLVQAGGILRLSCAASGSIFIPNAMGWYRQAPGKERELVAAIRSGGSTYYADSVKGRFTISRDNAKNTVYLQMNSLKPEDTAVYYCAADTYTYYYYLARYYYWGQGTQVTVSS | low polyreactivity
